The values that follow come from patent publication US20220064331A1 (Genentech, published 2022).

Positions count from the first letter of the chain named.

T1: mouse KLB (mouse, UniProt Q99N32 53-990)
T1 construct: expressed from KLB cDNA on HEK293T cells and read by FACS; also called msKLB
T1 sequence: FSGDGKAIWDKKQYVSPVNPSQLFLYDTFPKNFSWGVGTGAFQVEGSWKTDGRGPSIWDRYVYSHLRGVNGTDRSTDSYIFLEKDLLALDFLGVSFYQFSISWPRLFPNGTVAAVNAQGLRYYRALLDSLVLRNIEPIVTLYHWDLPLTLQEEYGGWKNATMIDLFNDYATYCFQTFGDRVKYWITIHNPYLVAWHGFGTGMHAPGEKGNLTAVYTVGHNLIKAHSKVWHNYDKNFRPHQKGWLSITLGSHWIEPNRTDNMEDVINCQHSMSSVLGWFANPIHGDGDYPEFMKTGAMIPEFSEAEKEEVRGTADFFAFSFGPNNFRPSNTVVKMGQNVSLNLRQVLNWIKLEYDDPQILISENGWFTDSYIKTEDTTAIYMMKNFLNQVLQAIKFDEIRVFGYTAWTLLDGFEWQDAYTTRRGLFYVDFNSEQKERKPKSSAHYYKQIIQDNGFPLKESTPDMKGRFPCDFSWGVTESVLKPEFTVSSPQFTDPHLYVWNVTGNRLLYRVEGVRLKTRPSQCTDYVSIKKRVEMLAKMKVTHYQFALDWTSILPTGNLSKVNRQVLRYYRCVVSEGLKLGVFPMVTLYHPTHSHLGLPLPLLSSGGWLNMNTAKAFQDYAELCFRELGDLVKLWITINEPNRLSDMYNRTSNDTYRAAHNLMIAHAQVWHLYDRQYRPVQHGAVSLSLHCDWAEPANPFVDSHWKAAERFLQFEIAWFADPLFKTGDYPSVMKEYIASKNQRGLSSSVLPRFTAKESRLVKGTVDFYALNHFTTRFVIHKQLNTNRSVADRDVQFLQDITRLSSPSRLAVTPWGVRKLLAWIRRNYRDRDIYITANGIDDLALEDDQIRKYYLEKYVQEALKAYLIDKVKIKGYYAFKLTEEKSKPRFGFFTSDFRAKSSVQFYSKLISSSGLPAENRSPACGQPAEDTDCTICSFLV

T2: rabbit KLB (+N-ter FLAG) (rabbit)
T2 construct: expressed from KLB cDNA on HEK293T cells and read by FACS
T2 chain: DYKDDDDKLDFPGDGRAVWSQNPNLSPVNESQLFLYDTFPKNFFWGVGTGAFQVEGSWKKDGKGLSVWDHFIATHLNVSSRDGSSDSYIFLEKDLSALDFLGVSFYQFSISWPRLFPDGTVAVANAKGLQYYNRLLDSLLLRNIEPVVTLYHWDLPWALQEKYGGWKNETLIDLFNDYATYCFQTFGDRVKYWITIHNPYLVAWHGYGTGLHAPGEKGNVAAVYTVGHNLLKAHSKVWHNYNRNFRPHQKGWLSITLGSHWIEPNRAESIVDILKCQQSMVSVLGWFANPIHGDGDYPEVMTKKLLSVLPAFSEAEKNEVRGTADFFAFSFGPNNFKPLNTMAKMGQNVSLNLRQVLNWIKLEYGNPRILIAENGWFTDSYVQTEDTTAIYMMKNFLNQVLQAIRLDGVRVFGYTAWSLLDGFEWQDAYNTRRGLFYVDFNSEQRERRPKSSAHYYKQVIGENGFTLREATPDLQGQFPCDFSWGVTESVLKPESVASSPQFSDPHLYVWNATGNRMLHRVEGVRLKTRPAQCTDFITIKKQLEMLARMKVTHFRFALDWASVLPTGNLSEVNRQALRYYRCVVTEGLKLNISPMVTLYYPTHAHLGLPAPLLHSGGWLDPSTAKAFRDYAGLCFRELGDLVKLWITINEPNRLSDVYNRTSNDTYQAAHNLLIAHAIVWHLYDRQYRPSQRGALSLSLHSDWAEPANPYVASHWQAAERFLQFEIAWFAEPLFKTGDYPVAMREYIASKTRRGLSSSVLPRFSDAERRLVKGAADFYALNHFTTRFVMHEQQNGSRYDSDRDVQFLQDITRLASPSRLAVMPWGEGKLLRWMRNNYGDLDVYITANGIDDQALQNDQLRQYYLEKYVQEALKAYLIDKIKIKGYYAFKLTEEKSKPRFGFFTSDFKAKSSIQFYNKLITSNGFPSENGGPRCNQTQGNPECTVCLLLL

T3: cynomolgus monkey KLB (+N-ter FLAG) (cynomolgus monkey, UniProt Q86Z14 53-991 (human entry))
T3 construct: expressed from KLB cDNA on HEK293T cells and read by FACS; also called Cyno KLB
T3 chain: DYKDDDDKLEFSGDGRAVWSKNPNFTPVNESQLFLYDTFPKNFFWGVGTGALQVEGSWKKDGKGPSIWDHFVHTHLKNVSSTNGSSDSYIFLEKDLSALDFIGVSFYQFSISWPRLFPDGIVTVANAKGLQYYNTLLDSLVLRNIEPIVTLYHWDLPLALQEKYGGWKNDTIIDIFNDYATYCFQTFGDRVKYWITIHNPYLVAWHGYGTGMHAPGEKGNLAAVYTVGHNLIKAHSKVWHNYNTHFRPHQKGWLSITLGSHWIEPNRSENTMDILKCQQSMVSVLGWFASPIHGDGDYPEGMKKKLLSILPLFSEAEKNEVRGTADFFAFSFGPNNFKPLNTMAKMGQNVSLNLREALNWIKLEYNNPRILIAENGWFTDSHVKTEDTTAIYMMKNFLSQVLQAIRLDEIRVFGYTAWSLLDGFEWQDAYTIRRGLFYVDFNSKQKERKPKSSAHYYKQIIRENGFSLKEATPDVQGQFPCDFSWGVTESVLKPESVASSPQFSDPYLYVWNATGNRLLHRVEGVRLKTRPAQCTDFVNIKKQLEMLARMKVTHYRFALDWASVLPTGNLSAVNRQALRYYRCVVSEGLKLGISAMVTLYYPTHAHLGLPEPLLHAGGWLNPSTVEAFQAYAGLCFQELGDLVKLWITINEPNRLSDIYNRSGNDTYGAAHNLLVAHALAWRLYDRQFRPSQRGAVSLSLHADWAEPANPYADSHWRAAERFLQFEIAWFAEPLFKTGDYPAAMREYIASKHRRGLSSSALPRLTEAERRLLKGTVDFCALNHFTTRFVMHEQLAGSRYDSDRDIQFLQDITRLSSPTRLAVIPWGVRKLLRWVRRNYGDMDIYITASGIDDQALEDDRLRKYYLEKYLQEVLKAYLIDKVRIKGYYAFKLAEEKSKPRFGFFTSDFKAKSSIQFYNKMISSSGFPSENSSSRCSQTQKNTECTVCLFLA

B1: 12B8 (antibody, V domains shown)
VH: QIQLVQSGPELKKPGETAKISCKASGYAFSNYGMNWVKQAPGKDLKWMGWIDTDTGEATYTDDFKGRFVFSLETSASTAYLQINNLKNEDMATYFCAREEYGLFGFPYWGHGTLVTVSA
VL: DIQMTQSSSSFSVSLGDRVTITCKASEDIYNRLAWYQQKPGSAPRLLISAATSLETGVPSRFSGSGSGKDYTLSITSLQTEDVATYYCQQYWSNPLTFGAGTKLEIK
notes: murine hybridoma-derived anti-KLB antibody
B2: 5F8 (antibody, V domains shown)
VH: EVQLQQSGTELVRPGASVKLSCTSSDFNIKDTYIHWVKQRPEQGLDWLGRIDPANGNTKYDPKFQGKAAMTSDTSSNTAYLRLSSLTSEDTAVYYCASSGNYGAMDYWGQGTSVTVSS
VL: ESVLTQSPALMSASLGEKVTMTCRASSSVNHMYWYQQKSDASPKLWIYYTSTLAPGVPARFSGSGSGNSYSLTISSMEGEDAATYYCQQFTISPSMYTFGGGTKLEIK
notes: as for B1
B3: 24A1 (antibody, V domains shown)
VH: QVQLKQSGAELVRPGTSVTLSCKASGYTFTDYEMHWMKQTPVYGLEWIGAIWPENADSVYNQKFKGKVTLTADKSSSTAYMDLRSLTSEDSAVYYCTREGGNYWGQGTTLTVSS
VL: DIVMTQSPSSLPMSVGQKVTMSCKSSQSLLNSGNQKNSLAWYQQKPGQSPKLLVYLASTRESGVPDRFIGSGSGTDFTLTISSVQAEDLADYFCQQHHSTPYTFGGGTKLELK
notes: as for B1
B4: 8C5 (antibody, V domains shown)
VH: QVQLKQSGPGLVQPSQSLSVACTVSDFSLTTYGVHWVRQSPGKGLEWLGVIWSGGSTDYNAAFISRLTISKDNSKSQVFFKMNSLQTTDTAIYYCARDYGSTYVDAIDYWGQGTSVTVSS
VL: DIVLTQSPTSLAVSLGQRATISCRASESVESYGNRYMTWYQQKPGQPPKLLIYRAANLQSGIPARFSGSGSRTDFTLTIDPVEADDVATYYCQQSNEDPWTFGGGTKVEIK
notes: murine hybridoma-derived anti-KLB antibody; also called KLBmAb1
B5: 8E1 (antibody, V domains shown)
VH: EVQLQQSGAELVKPGASVKLSCTAADFNIKDTYMHWVKQRPEQGLEWIGRIDPSNGNAKYDPKFQGKASITADSSSNTAYLHLSSLTSEDTAVYYCASRALGNGYALGYWGQGTSVTVSS
VL: DIQMTQSSSYLSVSLGGSVTITCKASDHINNWLAWYQQKPGNAPRLLIYGTTNLETGVPSRFSGSGSGRDYILSITSLQSEDVASYYCQQYWNTPFTFGSGTKLEIK
notes: as for B1
B6: 25F7 (antibody, V domains shown)
VH: EVQLQQSGAELLKPGASVRLSCTASGFNIQDTFTHWVRQRPEQGLEWIGRIDPSNGNTKYDPKFQGKAKILADTSSNTAYLQLIGLTSEDTAVYYCASRALGNGYAMDYWGQGTSVTVSS
VL: B5 VL with S18R, Y49S, T51A, T52S, V58I, R69K, I72T, S74T, S80T, S85T
notes: as for B1
B7: 14C6 (antibody, V domains shown)
VH: QIQLQQSGAELMKPGASVRMSCKASGYTFSSYWIEWVKQRSGHGLEWIGEIFPGGGSTIYNENFRDKATFTADTSSNTAYMQLSSLTSEDSAVYFCARRGYYDAAWFDYWGQGTLVTVSA
VL: QIVLTQSPAIMSASPGERVTLTCSASSSLSSSYLYWYQQKPGSSPKLWIYGASNLASGVPGRFSGSGSGTSYSLTISSMEAEDAASYFCHQWSSYPLTFGSGTKLELK
notes: as for B1
B8: 8H7 (antibody, V domains shown)
VH: QVQLQQPGAEIVKPGASVRLSCKASGYSFTSYWIHWVKQRPGQGLEWIGEIDPSVSNSNYNQKFKGKATLTADKSSSTAYMQLSGLTSEDSAVYFCVRLGVMVYGSSPFWFAYWGQGTLVTVSA
VL: DIVMTQSQKFMSTSVGDRVSITCKASQFVSDAVAWYQQKPGQSPKLLICSASYRYTGVPDRFTGSGSGTDFTFTISSVRTEDLAVYYCQQHYIVPYTFGGGTTLEIE
notes: as for B1
B9: 21H3 (antibody, V domains shown)
VH: B8 VH
VL: B8 VL
notes: as for B1
B10: 12A11 (antibody, V domains shown)
VH: EVKFLESGGGLVQPGGSLRLSCAVSGIDFSRYWMSWVRQAPGKGLEWIGEISPDSSTINYTPSLKDKFVISRDNAKNTLYLQMSKVRSADTALYYCARPSPALDYWGQGTLVTVSA
VL: DIVMTQSPATLSVTPGDRVSLSCRASQSISDYVYWYQQKSHESPRLLIIYASQSISGIPSRFSGSGSGSDFTLSINSVEPEDVGVYYCQNGHNFPYTFGGGTKLEIK
notes: murine hybridoma-derived anti-KLB antibody; also called KLBmAb2

The target in one assay is T1, mouse KLB. The assay is described as follows: FACS on transfected HEK293T cells. The protocol:
(§1) Species cross reactivity of the disclosed anti-KLB antibodies were analyzed by FACS analysis using KLB cDNA from mouse, rat, rabbit, cynomolgus monkey and rhesus monkey cloned into pRK mammalian expression vectors transiently transfected into HEK293T cells. The KLB extracellular domain polypeptide sequences that were expressed are as follows: […]
Consider B1, for which the binding result was “no binding”.
B2: the binding result is reported as “no binding”.
Turning to B3, the binding result is “binds”.
On to B4, for which the binding result is “binds”.
Take B5: the binding result is reported as “no binding”.
B6: the binding result is reported as “no binding”.
As to B7, the binding result is on record as “binds”.

The target of a further assay is T2, rabbit KLB (+N-ter FLAG). The assay is described as follows: FACS on transfected HEK293T cells. How it is done:
as §1
Take B1: the binding result is “binds”.
For B2, the binding result is listed as “binds”.
The same measure, in the same setting: then B8, with “binds”; and B9, with “binds”.
B3: the binding result is “binds”.
Same read-out and setting: with B4 the entry was “no binding”; with B5, “binds”.
As for B10, the binding result is recorded as “binds”.
Regarding B7, the binding result is “binds”.

In a further assay the target is T3, cynomolgus monkey KLB (+N-ter FLAG). The assay is described as follows: FACS on transfected HEK293T cells. How it is done: as §1
On to B1, for which the binding result is listed as “binds”.
For B2, the binding result is listed as “binds”.
As to B8, the binding result was “binds”.
For B9, the binding result was “binds”.
As for B3, the binding result is given as “binds”.
With B4, the binding result is “binds”.
Take B5: the binding result was “binds”.
For B6, the binding result is reported as “binds”.
On the same count and under the same terms, then B10, with “binds”.
For the molecule B7, the binding result was “binds”.
